In the Immune Epitope Database (IEDB):

How the values were obtained:
Assay in all cases: IEDB peptide-MHC binding, purified MHC/competitive/radioactivity; filed as Kd, often an IC50 or EC50 that approximates it; ≥ and ≤ were set here for values at or beyond the usual limits of such assays
HLA-A*68:01 = target: HLA-A*68:01
HLA-A*11:01 = target: HLA-A*11:01
HLA-A*33:01 = target: HLA-A*33:01
HLA-A*03:01 = target: HLA-A*03:01
HLA-A*31:01 = target: HLA-A*31:01
HLA-A*02:03 = target: HLA-A*02:03
HLA-A*02:06 = target: HLA-A*02:06
[1] = source organism: SARS coronavirus Tor2
[2] = source organism: Dengue virus 1 Brazil/97-11/1997
[3] = source organism: Dengue virus 4 Philippines/H241/1956
[4] = source organism: Dengue virus 2 Jamaica/1409/1983
[5] = source organism: Vaccinia virus WR
[6] = source organism: Dengue virus 3 Martinique/1243/1999
[7] = source organism: Triticum aestivum
[8] = source organism: Mammarenavirus machupoense
[9] = source organism: Dengue virus 1 Nauru/West Pac/1974
[10] = source organism: Dengue virus 2 Peru/IQT2913/1996

SAGFSLWIY
Kd (HLA-A*68:01; [1]): 4040 nM
Kd (HLA-A*11:01; [1]): 116 nM
Kd (HLA-A*33:01; [1]): 17300 nM
Kd (HLA-A*03:01; [1]): 572 nM
Kd (HLA-A*31:01; [1]): 393 nM

STSAFIDTIK
Kd (HLA-A*68:01; [1]): 25.9 nM
Kd (HLA-A*11:01; [1]): 15.6 nM
Kd (HLA-A*33:01; [1]): ≥ 47100 nM
Kd (HLA-A*03:01; [1]): 1090 nM
Kd (HLA-A*31:01; [1]): 8800 nM

GLAMGIMMLK
Kd (HLA-A*11:01; [2]): 156 nM
Kd (HLA-A*03:01; [2]): 12.1 nM

AVSTANIFR
Kd (HLA-A*68:01; [3]): 29.6 nM
Kd (HLA-A*11:01; [3]): 90.7 nM

IMQRGLFGK
Kd (HLA-A*11:01; [3]): 327 nM
Kd (HLA-A*03:01; [3]): 85.6 nM

TTFVTPMLR
Kd (HLA-A*68:01; [4]): 3.77 nM
Kd (HLA-A*11:01; [4]): 79.2 nM
Kd (HLA-A*33:01; [4]): 5.67 nM
Kd (HLA-A*03:01; [4]): 102 nM
Kd (HLA-A*31:01; [4]): 16.5 nM

IVQMLSDTLK
Kd (HLA-A*68:01; [1]): 1180 nM
Kd (HLA-A*11:01; [1]): 64.4 nM
Kd (HLA-A*33:01; [1]): ≥ 22500 nM
Kd (HLA-A*03:01; [1]): 292 nM
Kd (HLA-A*31:01; [1]): 3820 nM

ILKINSVKYY
Kd (HLA-A*68:01; [5]): 1420 nM
Kd (HLA-A*11:01; [5]): 13500 nM
Kd (HLA-A*33:01; [5]): 11200 nM
Kd (HLA-A*03:01; [5]): 17200 nM
Kd (HLA-A*31:01; [5]): 4910 nM

QMWSLMYFHR
Kd (HLA-A*33:01; [6]): 4.14 nM
Kd (HLA-A*31:01; [6]): 1.41 nM

TLCAIILGGL
Kd (HLA-A*02:03; [3]): 3.7 nM

QQQQQQQQK
Kd (HLA-A*68:01; [7]): ≥ 31300 nM
Kd (HLA-A*11:01; [7]): 845 nM
Kd (HLA-A*33:01; [7]): ≥ 56400 nM
Kd (HLA-A*03:01; [7]): 2110 nM
Kd (HLA-A*31:01; [7]): 5380 nM

GIGTFLHYK
Kd (HLA-A*68:01; [5]): 24 nM
Kd (HLA-A*11:01; [5]): 0.585 nM
Kd (HLA-A*33:01; [5]): 3780 nM
Kd (HLA-A*03:01; [5]): 7.8 nM
Kd (HLA-A*31:01; [5]): 65.7 nM

YQSFLFWFLK
Kd (HLA-A*68:01; [5]): 8.31 nM
Kd (HLA-A*11:01; [5]): 0.706 nM
Kd (HLA-A*33:01; [5]): 3990 nM
Kd (HLA-A*03:01; [5]): 20.6 nM
Kd (HLA-A*31:01; [5]): 18.4 nM

VQTAPGTFK
Kd (HLA-A*11:01; source organism: Dengue virus 1 Singapore/S275/1990): 129 nM

VIYDSKFEK
Kd (HLA-A*11:01; [6]): 41.6 nM
Kd (HLA-A*03:01; [6]): 64.3 nM

NTPECPSASR
Kd (HLA-A*68:01; [6]): 4.83 nM

ESRDRKWLYY
Kd (HLA-A*68:01; [5]): 10800 nM
Kd (HLA-A*11:01; [5]): ≥ 59000 nM
Kd (HLA-A*33:01; [5]): ≥ 70000 nM
Kd (HLA-A*03:01; [5]): 11500 nM
Kd (HLA-A*31:01; [5]): ≥ 70000 nM

LSKIPYLRNY
Kd (HLA-A*68:01; [5]): 9650 nM
Kd (HLA-A*11:01; [5]): 2610 nM
Kd (HLA-A*33:01; [5]): 9090 nM
Kd (HLA-A*03:01; [5]): 6940 nM
Kd (HLA-A*31:01; [5]): 320 nM

CFKEASFSKR
Kd (HLA-A*68:01; [5]): 1640 nM
Kd (HLA-A*11:01; [5]): ≥ 43600 nM
Kd (HLA-A*33:01; [5]): 61.4 nM
Kd (HLA-A*03:01; [5]): 9160 nM
Kd (HLA-A*31:01; [5]): 35.9 nM

SLELIIIHTK
Kd (HLA-A*68:01; [5]): 8050 nM
Kd (HLA-A*11:01; [5]): 1300 nM
Kd (HLA-A*33:01; [5]): ≥ 53400 nM
Kd (HLA-A*03:01; [5]): 16200 nM
Kd (HLA-A*31:01; [5]): 130 nM

LMAFANQIHH
Kd (HLA-A*68:01; [8]): ≥ 47300 nM
Kd (HLA-A*11:01; [8]): 15300 nM
Kd (HLA-A*33:01; [8]): ≥ 70000 nM
Kd (HLA-A*03:01; [8]): 931 nM
Kd (HLA-A*31:01; [8]): ≥ 22300 nM

HLYLQYIRK
Kd (HLA-A*68:01; [1]): 1610 nM
Kd (HLA-A*11:01; [1]): 14.8 nM
Kd (HLA-A*33:01; [1]): 6900 nM
Kd (HLA-A*03:01; [1]): 0.172 nM
Kd (HLA-A*31:01; [1]): 516 nM

LTMFLITENK
Kd (HLA-A*68:01; [9]): 23 nM
Kd (HLA-A*11:01; [9]): 30.4 nM
Kd (HLA-A*03:01; [9]): 4.57 nM

LQMEDKAWL
Kd (HLA-A*02:06; [4]): 32.2 nM

RSLQTIASK
Kd (HLA-A*68:01; [5]): 187 nM
Kd (HLA-A*11:01; [5]): 7.32 nM
Kd (HLA-A*33:01; [5]): ≥ 77700 nM
Kd (HLA-A*03:01; [5]): 1.5 nM
Kd (HLA-A*31:01; [5]): 4.3 nM

ATTFITPMLR
Kd (HLA-A*68:01; [10]): 15.3 nM
Kd (HLA-A*11:01; [10]): 14 nM
Kd (HLA-A*31:01; [10]): 48.6 nM

QMWQLMYFHR
Kd (HLA-A*33:01; [2]): 0.396 nM
Kd (HLA-A*31:01; [2]): ≥ 39900 nM

SLVMLLVHYA
Kd (HLA-A*02:03; [3]): 640 nM
Kd (HLA-A*02:06; [3]): 423 nM

AFQHQNSKK
Kd (HLA-A*68:01; [1]): 3920 nM
Kd (HLA-A*11:01; [1]): 3000 nM
Kd (HLA-A*33:01; [1]): ≥ 22600 nM
Kd (HLA-A*03:01; [1]): 13900 nM
Kd (HLA-A*31:01; [1]): 672 nM

VSSVNTTSK
Kd (HLA-A*11:01; [3]): 1390 nM

SLNRQTVSR
Kd (HLA-A*68:01; [5]): 818 nM
Kd (HLA-A*11:01; [5]): 1350 nM
Kd (HLA-A*33:01; [5]): 286 nM
Kd (HLA-A*03:01; [5]): 67.1 nM
Kd (HLA-A*31:01; [5]): 7.2 nM

ATSTGNYNYK
Kd (HLA-A*68:01; [1]): 9.61 nM
Kd (HLA-A*11:01; [1]): 1.38 nM
Kd (HLA-A*33:01; [1]): ≥ 26300 nM
Kd (HLA-A*03:01; [1]): 4.34 nM
Kd (HLA-A*31:01; [1]): 69.5 nM

MSAAIKDSK
Kd (HLA-A*68:01; [2]): 76.6 nM
Kd (HLA-A*11:01; [2]): 1120 nM

MGANFRAGR
Kd (HLA-A*68:01; [3]): 46.7 nM

YVASYLLAAL
Kd (HLA-A*02:03; source organism: Homo sapiens): 1.04 nM

RLASAILNA
Kd (HLA-A*02:03; [3]): 22.8 nM

EVGAIALDFK
Kd (HLA-A*68:01; [2]): 15.6 nM

HMVRCCKVY
Kd (HLA-A*68:01; [5]): 780 nM
Kd (HLA-A*11:01; [5]): ≥ 40000 nM
Kd (HLA-A*33:01; [5]): ≥ 45800 nM
Kd (HLA-A*03:01; [5]): 399 nM
Kd (HLA-A*31:01; [5]): 10700 nM

ISRDELWAR
Kd (HLA-A*68:01; [5]): 946 nM
Kd (HLA-A*11:01; [5]): ≥ 22200 nM
Kd (HLA-A*33:01; [5]): 1.69 nM
Kd (HLA-A*03:01; [5]): ≥ 78000 nM
Kd (HLA-A*31:01; [5]): 47.8 nM

SLAAIANQA
Kd (HLA-A*02:03; [6]): 55 nM

TSPGEIKPK
Kd (HLA-A*68:01; [5]): 4810 nM
Kd (HLA-A*11:01; [5]): 1040 nM
Kd (HLA-A*33:01; [5]): ≥ 77700 nM
Kd (HLA-A*03:01; [5]): ≥ 61800 nM
Kd (HLA-A*31:01; [5]): ≥ 22500 nM

IFPANINDK
Kd (HLA-A*68:01; [5]): 1200 nM
Kd (HLA-A*11:01; [5]): 1090 nM
Kd (HLA-A*33:01; [5]): 12500 nM
Kd (HLA-A*03:01; [5]): 2240 nM
Kd (HLA-A*31:01; [5]): 3580 nM

IASKINNNR
Kd (HLA-A*68:01; [5]): 1.86 nM
Kd (HLA-A*11:01; [5]): 329 nM
Kd (HLA-A*33:01; [5]): 76.6 nM
Kd (HLA-A*03:01; [5]): 13200 nM
Kd (HLA-A*31:01; [5]): 28.8 nM

QLEQPYVFIK
Kd (HLA-A*68:01; [1]): 17200 nM
Kd (HLA-A*11:01; [1]): 2990 nM
Kd (HLA-A*33:01; [1]): ≥ 70000 nM
Kd (HLA-A*03:01; [1]): 6680 nM
Kd (HLA-A*31:01; [1]): 11300 nM
